Broadly, the IC50 is the concentration that inhibits the measured activity by half.

Data set [1] concerns the target T1, cGAS (Homo sapiens, UniProt Q8N884). Description: Thin-layer chromatography based (radiolabeled TLC) cGAS activity assay with DNA intercalators. Type of data set: biochemical. Also on record: DNA-dependent human cGAS activity was assayed with recombinant full-length cGAS and HT-DNA; implied by Ni-NTA capture and imidazole elution; made in house; host or cells: BL21-RIL DE3 E. coli. The conditions noted are these: 100 μM concentration. On the procedure:
Quinacrine intercalation can lengthen the B-form DNA helix but otherwise would not grossly alter conformation (Hossain et al., (2008). DNA intercalation by quinacrine and methylene blue: a comparative binding and thermodynamic characterization study. DNA Cell Biol 27, 81-90). To support the proposed mechanism of action, other DNA intercalators were tested for effects on cGAS activity. The radiolabeled TLC assay was employed in order to avoid possible complications in data interpretation from compounds interacting with the RNA biosensor. […] Importantly, the enzyme-independent effect of compounds on fluorescence of the RNA biosensors can easily be analyzed in control reactions, which allows one to distinguish compounds in the screen that likely interact with the DNA instead of the enzyme directly.
DNA-dependent human cGAS activity was assayed with recombinant full-length cGAS and HT-DNA (Sigma-Aldrich, St Louis, Mo.). cGAS (estimated final concentration 1.5 μM) or equal volumes of water were incubated with HT-DNA (final concentration 0.1 mg/ml) in the presence of 250 μM ATP and GTP and [a-32P] ATP or GTP (˜30 nM) as indicated. All reactions included 100 mM NaCl, 10 mM MgCl2, 40 mM Tris-HCl (pH 7.5), and reactions were incubated at 37° C. for 1.5 hr. Reactions were terminated with the addition of 5 U of alkaline phosphatase (New England Biolabs) and incubation at 37° C. for 30 min. One microliter of each reaction was spotted onto a PEI-Cellulose F thin-layer chromatography plate (EMD Millipore), and reaction products were separated with the use of 1.5 M KH2PO4 (pH 3.8) as solvent. Plates were dried and radiolabeled products were detected with a phosphor screen and the Typhoon phosphorimager (GE Life Sciences).

The next data set concerns Spinach2 aptamer. Description: Fluorescence of dye-binding Spinach2 aptamer in presence of quinacrine (control). The settings on record: dose-dependent (FIG. 10). An excerpt:
FIG. 10 illustrates dose-dependent loss of fluorescence in presence of QC for both the 2′, 3′-cGAMP biosensor and Spinach2 aptamer.
Quinacrine is a DNA intercalator that may disrupt biosensor function by intercalating into the RNA helices.

In data set [2] the test system is cGAS. The settings on record: radiolabeled TLC assay, Gray et al. 2015; cited from earlier work.
The target in data set [3] is T1, cGAS. The experiment in a line: cGAS inhibition assay read out by RNA-based fluorescent biosensor. Format: biochemical. Also on record: implied by Ni-NTA capture and imidazole elution; made in house; host or cells: BL21-RIL DE3 E. coli. The settings on record: decrease of signal independent of enzyme activity, called artefactual, read-out: apparent IC50.
Experimental: To initiate the enzyme reaction, 0.5 μL of HT-DNA was added to 2.5 μL of 6× enzyme reaction solution containing cGAS, GTP, ATP and cGAS reaction buffer. Generally, final concentrations are 100m/mL HT-DNA, 1.5 μM cGAS, 200 μM GTP, 200 μM ATP, and cGAS reaction buffer (40 mM Tris-HCl (pH 7.5), 100 mM NaCl, 10 mM MgCl2). The reaction was incubated at 37° C. for 2 hours to allow the enzyme reaction to proceed. […] To initiate the fluorescent biosensor reaction, 3 μL of the enzyme reaction was added to 27 μL of biosensor reaction solution containing renatured RNA, DFHBI (or DFHBI-1T), and biosensor activation buffer. Final concentrations are 200 nM RNA, 10 μM DFHBI (or DFHBI-1T), 40 mM HEPES, pH 7.5, 125 mM KCl, 10 mM MgCl2, and 0.1×cGAS reaction buffer (40 mM Tris-HCl (pH 7.5), 100 mM NaCl, 10 mM MgCl2). […] For the inhibition assay, due to the fluorescence of Quinacrine dihydrochloride, DFHBI-1T was used instead. Samples containing only Quinacrine dihydrochloride of varied concentration in the buffer were used for background fluorescence subtraction.
The nature of data set [4]: In vitro fluorescence assay of GEMM-II riboswitch-based biosensors with c-di-GMP (binding affinity, turn-on). The conditions noted are these: for Kd: ligand c-di-GMP; for fold turn-on: 100 nM RNA, 100 μM c-di-GMP. On the procedure: (§1) In vitro fluorescence assays were carried out in a buffer containing 40 mM HEPES, pH 7.5, 125 mM KCl. Other conditions, including temperature, concentrations of MgCl2, DFHBI (or DFHBI-1T), ligand (or cell extract) and RNA were varied in different experiments and are indicated in the figures. The RNA was renatured in buffer at 70° C. for 3 min and cooled to ambient temperature for 5 min prior to addition to the reaction solution. DFHBI (or DFHBI-1T) was added to a solution containing buffer and ligand, and then RNA was added at the end before fluorescence measurement. Binding reactions were performed either in 100 μL volumes (96-well plate) or 30 μL (384-well plate) and were incubated at the indicated temperature in either a Corning Costar 3915 96-well black plate or Greiner 781077 384-well black plate until equilibrium was reached, which typically takes 30 to 60 minutes. The fluorescence emission was measured using a Molecular Devices SpectraMax Paradigm Multi-Mode detection platform plate reader (Sunnyvale, Calif.) with the following instrument parameters (for DFHBI): 448 nm excitation, 506 nm emission. In case of DFHBI-1T 470 nm excitation and 510 nm emission was used.
(§2) To measure the binding affinities of 2′, 3′-cGAMP biosensors, fluorescence assays were performed with the following conditions: 37° C., 3 mM MgCl2, 200 nM RNA, and 10 μM DFHBI. The 2′, 3′-cGAMP concentration (ccGAMP) was varied, and the fluorescence of the sample with DFHBI but no RNA was subtracted as background to determine relative fluorescence units. The ratio between the fraction of biosensor that is bound by 2′, 3′-cGAMP and the total 2′, 3′-cGAMP biosensor concentration is given as:
(§3) where Fmin is the fluorescence of the sample containing no 2′,3′-cGAMP, while Fmax is the fluorescence of the sample containing highest concentration of 2′,3′-cGAMP (100 μM). The dissociation constants Kd were determined by least squares fitting to the following equation in Graphpad Prism software: […]

Data set [5] can be described thus: In vitro fluorescence assay of GEMM-II riboswitch-based biosensors with 2′,3′-cGAMP (binding affinity, turn-on). The settings on record: for fold turn-on / Kd: 200 nM RNA; for fold turn-on: 100 μM 2′,3′-cGAMP; for Kd: ligand 2′,3′-cGAMP, 37° C., 3 mM Mg2+, 10 μM DFHBI, read-out: Kd (apparent dissociation constant). On the procedure:
as §1, §2, §3

A short description of data set [6]: In vitro fluorescence assay of GEMM-II riboswitch-based biosensors with 3′,3′-cGAMP (binding affinity, turn-on). The settings on record: for fold turn-on: 100 nM RNA, 100 μM 3′,3′-cGAMP; for Kd: ligand 3′,3′-cGAMP. On the procedure:
as §1, §2, §3

For a further data set, the system named is E. coli BL21-Star cells. The experiment in a line: In vivo fluorescence assay by flow cytometry, biosensor co-expressed with cyclic dinucleotide synthases (WspR, DncV, cGAS). The conditions noted are these: live E. coli, DFHBI-1T, DncV or cGAS co-expressed. Background: A flow cytometer gives signals particle by particle.

Starred links: 1 amine or outer side, 2 acyl side, 3 side chain; linkers in the order of their positions; H or OH if unused. Positions of bridges follow the written chain, without caps; N, C: chain ends. Non-standard residues stand in square brackets, D forms with d. Residues, ends and D or L forms follow the SMILES beside them. Chains are numbered I, II in the order given. Actinocin(9to1) = Cc1c2oc3c(C)ccc(C(=O)[*:1])c3nc-2c(C(=O)[*:2])c(N)c1=O; NMeV = CN[C@H](C(=O)O)C(C)C; Sar = CNCC(=O)O

T1 sequence (Q8N884 whole entry): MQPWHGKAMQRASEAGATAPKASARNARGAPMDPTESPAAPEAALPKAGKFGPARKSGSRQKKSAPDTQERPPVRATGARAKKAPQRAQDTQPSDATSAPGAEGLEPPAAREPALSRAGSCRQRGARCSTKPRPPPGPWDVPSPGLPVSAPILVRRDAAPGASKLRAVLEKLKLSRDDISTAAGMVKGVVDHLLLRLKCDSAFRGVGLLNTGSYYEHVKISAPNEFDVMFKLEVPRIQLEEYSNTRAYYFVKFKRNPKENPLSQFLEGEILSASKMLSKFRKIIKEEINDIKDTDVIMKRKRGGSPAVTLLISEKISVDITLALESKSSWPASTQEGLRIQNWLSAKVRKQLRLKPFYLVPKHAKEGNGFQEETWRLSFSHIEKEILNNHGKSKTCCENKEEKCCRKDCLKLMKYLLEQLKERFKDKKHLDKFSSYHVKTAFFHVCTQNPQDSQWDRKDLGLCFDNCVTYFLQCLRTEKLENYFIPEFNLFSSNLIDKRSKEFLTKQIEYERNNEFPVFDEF

On to `Cc1c2oc3c(C)ccc(C(=O)N[C@@H]4C(=O)N[C@H](C(C)C)C(=O)N5CCC[C@H]5C(=O)N(C)CC(=O)N(C)[C@@H](C(C)C)C(=O)O[C@@H]4C)c3nc-2c(C(=O)N[C@@H]2C(=O)N[C@H](C(C)C)C(=O)N3CCC[C@H]3C(=O)N(C)CC(=O)N(C)[C@@H](C(C)C)C(=O)O[C@@H]2C)c(N)c1=O` [Actinomycin D] (I: T[dV]P[Sar][NMeV] / II: T[dV]P[Sar][NMeV]; ester I:1-I:C, II:1-II:C; linker I:N-II:N via Actinocin(9to1)), for which, at cGAS [1], the “inhibition of cGAS activity” value is on record as “partial inhibition”.
For `CCN(CC)CCCC(C)Nc1c2ccc(Cl)cc2nc2ccc(OC)cc12` (centres unmarked) [Quinacrine], the “inhibition of cGAS activity” value at cGAS [1] was “fully inhibited”. For the same molecule, in the data set with Spinach2 aptamer, the “effect on fluorescence of Spinach2 aptamer” value was “decreased fluorescence”. For the same molecule, the IC50 with cGAS [2] is 13 µM; on cGAS [3], 39 ± 7 µM.
On to `CN(C)c1ccc2nc3ccc(=[N+](C)C)cc-3sc2c1` [methylene blue], for which the “inhibition of cGAS activity” value at cGAS [1] is reported as “no effect”.

B1: Bh P1-5delC: Bh GEMM-II riboswitch fused to Spinach2 via 5 base-paired P1 stem with deletion of a single C, SEQ ID NO: 16 (nucleic acid)
chain: GATGTAACTGAATGAAATGGTGAAGGACGGGTCCAATAGGGAAGCAACGAAGCATAGCCTTTATATGGACACTTGGGTTATGTGGAGCTACTAGTGTAACCGGCCCTCTTTGTTGAGTAGAGTGTGAGCTCCGTAACTAGTTACATC
modifications: synthetic nucleic acid
Consider B1, for which the Kd in data set [4] turned out to be 0.021 ± 0.008 µM. Moreover, in data set [5], the fold turn-on result is “(5.1x) fold” and the Kd was 13.4 ± 0.9 µM.

B2: Bh P1-6 WT: GEMM-II riboswitch (Bacillus halodurans C-125)-Spinach2 biosensor, 6 base-paired P1 stem, SEQ ID NO: 12 (nucleic acid)
chain: GATGTAACTGAATGAAATGGTGAAGGACGGGTCCAAATAGGGAAGCAACGAAGCATAGCCTTTATATGGACACTTGGGTTATGTGGAGCTACTAGTGTAACCGGCCCTCCTTTTGTTGAGTAGAGTGTGAGCTCCGTAACTAGTTACATC
modifications: synthetic nucleic acid
B2: the fold turn-on result is recorded as “(10.8x) fold” in data set [6] and “(13.1x) fold” in data set [4]. Besides, the Kd in data set [6] was over 11 µM; in data set [6] (listed as wild-type Bh P1-6) it was over 10 µM; in data set [4], 0.056 µM. The “fluorescence activation with c-di-GMP” value in data set [4] (FIG. 17, panel B screen) is 5 fold. Besides, the “fluorescence response to 2′,3′-cGAMP (in words)” value in data set [5] (20 μM ligand) is reported as “no response”.

B3: Bh P1-6 G103A: Bh P1-6 biosensor with G103A mutation in the binding pocket, SEQ ID NO: 18; G73A in b172, b180 likely the same (nucleic acid)
chain: GATGTAACTGAATGAAATGGTGAAGGACGGGTCCAAATAGGGAAGCAACGAAGCATAGCCTTTATATGGACACTTGGGTTATGTGGAGCTACTAGTGTAACCAGCCCTCCTTTTGTTGAGTAGAGTGTGAGCTCCGTAACTAGTTACATC
modifications: synthetic nucleic acid
notes: G73A, b180 likely the same
Take B3: the fold turn-on entry in data set [6] is given as “(9.6x) fold”; in data set [4], “(8.2x) fold”; in data set [5] it was “(10.3) fold”. The “increase of binding affinity to 3′,3′-cGAMP relative to wild-type Bh P1-6” value in data set [6] (G103A versus wild-type) is reported as “more than 10 fold”. Besides, the Kd in data set [6] is 0.8 µM; in data set [4] it was over 7.4 µM; in data set [5], over 65 µM. The “reduction of binding affinity to c-di-GMP relative to wild-type Bh P1-6” value in data set [4] (G103A versus wild-type) is on record as “more than 125 fold”. Further, in the data set on E. coli BL21-Star cells, the “cellular fluorescence activation upon co-expression of each enzyme” value was “Significant fluorescence activation”. Also, the “fluorescence activation in response to 2′,3′-cGAMP” value in data set [5] (200 nM biosensor, 20 μM ligand) came out at 5 fold.

Values taken from patent US20190161754A1, “FLUORESCENT BIOSENSOR FOR 2', 3'-CGAMP” (The Regents of the University of California, priority 2016, published 2019).
